From US20060105398A1, “Methods of identifying compounds that modulate igg mediated mast cell activation” (Rigel Pharmaceuticals, Inc, priority 2002, published 2006)

System: FcγRI activation of cultured human mast cells (CHMC)
Test: Priming of mast cells, tryptase activity in supernatant after Fcγ activation with IgG and anti-IgG
Format: cell-based
Conditions: IL-4 absent or present in priming solution; IgE primed mast cells; human IgG3 and rabbit anti-human IgG (FIG. 1A, 1B)
Experimental: Priming of mast cells is carried out by seeding the cells on Day 0 at 3.5×10^5 cells/mL in culture media plus SCF (200 ng/mL), IL-6 (200 ng/mL), IL-4 ([…]), IgE (200 ng/mL), and IgG3 (200 ng/mL).
Activation or stimulation of cells is done on Day 3 by centrifuging the cells down and resupending them at 1.5×10^3 cells/mL in modified tyrodes (MT: 137 mM NaCl, 2.7 mM KCI, 1.8 mM CaCl2, 5.6 mM glucose, 20 mM Hepes (pH 7.4), 0.1% Bovine Serum Albumin (Sigma A4503)), with or without rabbit anti-human IgG (200 ng/mL final conc.), for 30 minutes at 37° C. (see Demo, S. D., Cytometry. 36(4):340-348 (1999)).
Degranulation is measured by centrifuging down the sample, and harvesting the supernatant and measuring tryptase activity. The tryptase assays are performed under standard conditions (25 uL supernatant added to 100 uL of 10 uM tryptase substrate [20 mM stock solution of Z-Ala-Lys-Arg-AMC2TFA (Enzyme systems Products, Catalog No. AMC-246) diluted 1:2000 in tryptase assay buffer [[…] (pH 7.5), 10% w/v Glycerol, […], 0.01% NaN3] for 30 min at 37° C. The reactions are read in plate reader (Wallac, Victor 2, 1420 Multilabel Counter).

Substance: IL-4: cytokine added to the priming solution (20 ng/mL)
- effect on activation (tryptase activity in the supernatant): did not appear to substantially affect activation
